Laboratory results: article PMC4406087, “Remaining challenges in cellular flavin cofactor homeostasis and flavoprotein biogenesis” (Frontiers in Chemistry, 2015)

Tests used:
[1] = system: T1, Cc1cc2nc3c(=O)[nH]c(=O)nc-3n(C[C@H](O)[C@H](O)[C@H](O)COP(=O)(O)O)c2cc1C; test: spectrofluorimetric FAD synthesis assay; type: biochemical, Homo sapiens; details: 50 mM Tris-HCl pH 7.5, 5 mM MgCl2, 37°C, Km app at the highest ATP (ATP 1 to 100 μM; 8 μM at lowest ATP)
T1 construct: recombinant 6His-tagged cytosolic isoform 2, purified

[2] = system: T2, Nc1ncnc2c1ncn2[C@@H]1O[C@H](COP(=O)(O)OP(=O)(O)OP(=O)(O)O)[C@@H](O)[C@H]1O; test: spectrofluorimetric FAD synthesis assay; type: biochemical, Homo sapiens; details: 50 mM Tris-HCl pH 7.5, 5 mM MgCl2, 37°C, FMN 0.1-2 μM, ordered bi-bi, ATP binds first
T2 construct: recombinant 6His-tagged cytosolic isoform 2, purified

Sequence of 6His-hFADS2 (Homo sapiens) (chain, as listed by the source): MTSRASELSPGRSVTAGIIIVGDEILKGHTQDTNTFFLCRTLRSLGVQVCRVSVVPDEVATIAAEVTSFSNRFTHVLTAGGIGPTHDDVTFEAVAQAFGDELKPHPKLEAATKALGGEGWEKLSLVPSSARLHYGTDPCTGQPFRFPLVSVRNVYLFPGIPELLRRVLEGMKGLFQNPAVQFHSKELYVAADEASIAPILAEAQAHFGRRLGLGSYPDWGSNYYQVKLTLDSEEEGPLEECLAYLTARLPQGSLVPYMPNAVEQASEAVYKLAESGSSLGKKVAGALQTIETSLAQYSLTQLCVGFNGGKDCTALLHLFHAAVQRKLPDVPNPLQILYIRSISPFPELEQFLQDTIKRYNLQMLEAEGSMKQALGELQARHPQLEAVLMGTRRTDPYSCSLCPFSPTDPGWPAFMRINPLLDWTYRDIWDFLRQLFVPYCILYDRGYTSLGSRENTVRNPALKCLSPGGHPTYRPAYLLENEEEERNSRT

In the case of 6His-hFADS2 (Homo sapiens), the Km [1] is reported as 0.4 µM and the Km [2] is reported as 15 µM.
